Consider 17 molecules from patent US20150119254, “NUCLEIC ACID FRAGMENT BINDING TO TARGET PROTEIN” (RIKEN, published 2015).

For series [1], the target named is T1, IFN-gamma (UniProt P01579 P01579:24-166). As to the kind of experiment: SPR; 150 nM IFN-gamma, 930 s. The note with it: tags: PeproTech; chain copies: 2. How it is done: FIGS. 19A to 19C show the SPR sensorgrams wherein 50 nM, 100 nM, or 150 nM IFN-γ was injected. […] Each sensorgram was normalized to the molecular weight of a DNA fragment bound with SPR, the molecular weight of an injected protein, and the amount of the SPR-bound DNA fragment immobilized (RU). The injection time is 480 seconds. The dissociation time is 480 seconds.
T1 sequence (P01579 24-166, one chain of several): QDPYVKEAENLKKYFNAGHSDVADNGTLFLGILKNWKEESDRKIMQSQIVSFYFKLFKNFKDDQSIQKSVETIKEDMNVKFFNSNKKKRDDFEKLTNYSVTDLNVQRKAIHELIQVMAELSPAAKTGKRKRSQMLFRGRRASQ
Five types of sequences were selected from the sequences shown in Table 12 and analyzed for their IFN-γ-binding ability by surface plasmon resonance assay and 57-mer DNA fragments (Table 13) truncated at a primer region. A previously reported 57-mer DNA fragment comprising the DNA sequence of IFN-γ was also prepared and analyzed as a control.

Series [2] has as its target T2, VEGF-165 (Homo sapiens, UniProt P15692-4 P15692-4:27-191). The experiment in a line: SPR; existing aptamer control; 25 C. The note with it: tags: PeproTech; chain copies: 2 (dimer, concentrations stated in terms of dimer).
Series [3] addresses T2, VEGF-165. As to the kind of experiment: SPR; previously reported aptamer control. The note with it: tags: PeproTech; chain copies: 2 (dimer, concentrations stated in terms of dimer); label: 5' biotin-dT. The procedure: For comparison, 98-mer (full length) N43Ds-09-1, full-length DNA fragments N43Ds-09-1(AT) and N43Ds-09-1(G) with the artificial base Ds replaced with a natural base, and a control DNA fragment reported as a VEGF-binding DNA aptamer (VEGF binding DNA 35, 35 mer) were also assayed under the same conditions. As in the full length binding analysis of Example 2, each DNA fragment having biotinylated T added to the end for the direct immobilization of the DNA fragment onto an SA chip (GE Healthcare Japan Corp.) was prepared by chemical synthesis and gel purification. For the immobilization of each DNA fragment onto the sensor chip, a DNA solution diluted with a PBS solution to 25 nM was subjected to folding treatment (90° C. for 3 min→60° C. for 3 min→25° C.), and Nonidet P-40 was then added thereto at a final concentration of 0.05%. The resulting DNA solution (5 μl; corresponding to 1 min) was injected to the SA chip at a flow rate of 5 μl/min to immobilize the DNA fragment onto the chip. […]
The interaction between the immobilized DNA fragment and VEGF-165 was detected under monitoring by the injection of 12.5 nM, 25 nM, 37.5 nM, 50 nM, 62.5 nM, and 75 nM VEGF-165 solutions (diluted with buffer solution A; in terms of dimer) at the Kinetic Injection mode. […]

The target in series [4] is T2, VEGF-165. As to the kind of experiment: SPR; 10 nM VEGF-165, 930 s. The conditions noted are these: tags: PeproTech; chain copies: 2 (dimer, concentrations stated in terms of dimer). How it is done:
FIGS. 15A to 15C show the SPR sensorgrams wherein 2.5 nM, 5 nM, or 10 nM VEGF-165 was injected. […] Each sensorgram was normalized to the molecular weight of a DNA fragment bound with SPR, the molecular weight of an injected protein, and the amount of the SPR-bound DNA fragment immobilized (RU). The injection time is 480 seconds. The dissociation time is 480 seconds.
(§1) Five types of sequences were selected from the sequences shown in Table 8 and analyzed for their VEGF-165-binding ability by surface plasmon resonance (SPR) assay using BIACORE 3000 (GE Healthcare Japan Corp.) and 57-mer DNA fragments (Table 9) truncated at a primer region. A previously reported 57-mer DNA fragment comprising the DNA sequence of VEGF-165 was also prepared and analyzed as a control.

For series [5], the target named is T2, VEGF-165. As to the kind of experiment: SPR; random control. The conditions noted are these: tags: PeproTech; chain copies: 2 (dimer, concentrations stated in terms of dimer).
The target of series [6] is T2, VEGF-165. The experiment in a line: SPR; 25 C. The conditions noted are these: tags: PeproTech; chain copies: 2 (dimer, concentrations stated in terms of dimer).
Series [7] concerns the target T1, IFN-gamma. The experiment in a line: SPR; existing aptamer control. The note with it: tags: PeproTech; chain copies: 2.
The target in series [8] is T2, VEGF-165. The experiment in a line: SPR; printed as uM, evidently pM; existing aptamer control. The conditions noted are these: tags: PeproTech; chain copies: 2 (dimer, concentrations stated in terms of dimer). How it is done:
as §1
(§2) The DNA fragments used in the assay were subjected to curve fitting using BiaEvaluation software attached to Biacore 3000 and reaction models of Langmuir with mass transfer.

Series [9] addresses T1, IFN-gamma. The experiment in a line: SPR; Bound 0.14. The note with it: tags: PeproTech; chain copies: 2.
The target in series [10] is T2, VEGF-165. As to the kind of experiment: SPR; 25 C. The conditions noted are these: tags: PeproTech; chain copies: 2 (dimer, concentrations stated in terms of dimer). How it is done:
as §1, §2
The source holds these as a separate data set.

Bounds are passed on as bounds.

T2 sequence (P15692 other isoform, or with tags, fused parts or gaps): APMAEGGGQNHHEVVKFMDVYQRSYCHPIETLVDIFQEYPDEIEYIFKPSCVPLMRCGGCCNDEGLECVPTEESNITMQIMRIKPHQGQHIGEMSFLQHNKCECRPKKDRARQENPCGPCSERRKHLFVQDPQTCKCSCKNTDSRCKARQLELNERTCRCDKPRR

B1: IF04A-57 (ssDNA)
DNA: ATCAGTCCACTAATCAGGAAGAAGATAGGGTTTGTCTTATGTTGCCACGCTGGGAG
For the molecule B1, in the series with IFN-gamma [1], the binding signal was 0.08 bound ratio.

In the series with VEGF-165 [2], ATCGTATCAGTCCACAAGCCCGTCTTCCAGACAAGAGTGCAGGGC (ssDNA) [contVG-45] displayed a dissociation constant (Kd) of 0.081 nM. Consider TTGCACTCTGTGGGGGTGGACGGGCCGGGTAGATA (ssDNA) [VEGF binding DNA 35], for which the Kd with VEGF-165 [3] is over 100 nM.

B2: VG02aA-57 (ssDNA)
DNA: ATCAGTCCACATCGAGCGTGAGGTCCGAAAGGCGACTCTTATAACATCAAGTAATG
As to B2, the binding signal in the series with VEGF-165 [4] is 0.01 bound ratio.

Molecule ATGCTAGAGCATTGCGTAGAAGCTTGATATGTTGCTGGCCCGGAC (ssDNA) [Random-45] came in with a binding signal with VEGF-165 [5] of 0.01 bound ratio. As for CGATCGTATCAGTCCACAAGCCCGTCTTCCAGACAAGAGTGCAGGGC (ssDNA) [contVG-47], binding with VEGF-165 [2] was put at a Kd of 0.044 nM.

B3: VG01A-57 (ssDNA)
DNA: ATCAGTCCACAAAGTGCTGGGTCCGAATGGCGGGGGGTTAGGCCTCTTTGGGGCGG
In the case of B3, the binding signal with VEGF-165 [4] is 0.37 bound ratio.

B4: IF11A-57 (ssDNA)
DNA: ATCAGTCCACCTATGTGGGTTGGATGGGGTGTATGTTAGTAGGGCTAAGGAGGTGG
B4: the binding signal in the series with IFN-gamma [1] amounted to 0.46 bound ratio. Consider GTAAACTGCGTCCGAAGGGGCATGCAGTGAACCCGAATGGGTCCG (ssDNA) [VGd1-2A-45], for which, in the series with VEGF-165 [6], the dissociation constant (Kd) is 0.5 nM.

B5: contIF-57 (ssDNA)
DNA: TTCTGTCAATCGATCGTATCAGTCCACAATGGGGTTGGTTGTGTTGGGTGTTGTGT
In turn, B5 registered a Kd with IFN-gamma [7] of 67 nM.

B6: VG08A-57 (ssDNA)
DNA: ATCAGTCCACGAGATGGATGGTAGTGGCCGAACGGGGGGGATGGAGAAGCTGGCTG
In the case of B6, in the series with VEGF-165 [4], the binding signal stood at 0.01 bound ratio.

B7: contVG-57 (ssDNA)
DNA: TCTGTCAATCGATCGTATCAGTCCACAAGCCCGTCTTCCAGACAAGAGTGCAGGGC
In the case of B7, in the series with VEGF-165 [8], the equilibrium dissociation constant (Kd) was found to be 0.046 nM. The molecule TCGGGTCATTTAATAATGTAGGTATGGGCTAGGCAGCTAGTGGAT (ssDNA) [IFd1-3A-45] registered a dissociation constant (Kd) in the series with IFN-gamma [9] of over 200 nM.

B8: IF07bA-57 (ssDNA)
DNA: ATCAGTCCACTCGGGTCGTTTAATAATGTAGGTATGGGCTAGGCAGCTAGTGGATG
For the molecule B8, in the series with IFN-gamma [1], the binding signal amounted to 0.05 bound ratio.

B9: VG20A-57 (ssDNA)
DNA: TCAGTCCACGGTAAACTGAGTCCGAAGGGGCATGCAGTGAACCCGAATGGGTCCGG
Take B9: the Kd with VEGF-165 [10] was determined as 0.22 nM.

B10: VG02bA-57 (ssDNA)
DNA: ATCAGTCCACATACGCGGGGGTGTTGAAGGGTTAGTCGGAAGTAGTGTGTACAGAG
B10: the binding signal with VEGF-165 [4] is 0.31 bound ratio.

B11: IF07aA-57 (ssDNA)
DNA: ATCAGTCCACTCCTTCTGTCATAGGGCAGGCGCATTTGGTGTAGAGTTTATCTTGG
As to B11, the binding signal with IFN-gamma [1] was found to be 0.19 bound ratio.
